# Patent US20230242902A1, “A HIGHLY ERROR-PRONE […] R[…] FOR TARGETED CONTINUOUS EVOLUTION IN VIVO” (The Regents of the University of California, priority 2017, published 2023)
# Several values for one entry are separate records, joined by “and”; a condition that tells them apart may be missing. Equal entries are not always repeated.
# Tests used:
# Assay type in all cases: cell-based, S. cerevisiae
# [1] = system: p2-encoded leu2*; test: p2 leu2* fluctuation tests in GA-Y021 (p2 mutation rate reporter strain); details: for change in p2 mutation rate by TP-DNAP1: GA-Y021, noncognate polymerase in trans, mutual orthogonality experiment
# Procedure, shortened: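 Yeast GA-Y021 carrying wt TP-DNAP2 plus variants in trans; replicate cultures grown 48 h at 30° C in pH 5.8 SC dropout, spot-plated on leucine-free medium, colonies counted after 5 days. m by p0 method (six replicates) or Ma-Sandri-Sarkar MLE (36–48 replicates), normalized to titer, p2 copy number (mKate2) and 2.33 bp target.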
# [2] = system: p2-delORF2-URA3; test: Complementation of native TP-DNAP2 deletion (p2-delORF2-URA3 replication in trans)
# From the text: First, TP-DNAP2, which is ORF2 of p2, was deleted by homologous recombination of a synthetic cassette encoding URA3. Since p2 is a multi-copy plasmid, the resulting strain (GA-Y069) harbored a mixture of the parental wt p2 and the recombinant p2 with ORF2 deleted (p2-delORF2-URA3), along with unaltered p1. In this strain, both the wt p2 and recombinant p2-delORF2-URA3 plasmids rely on TP-DNAP2 encoded on the parental wt p2 plasmid for replication. Thus, loss of wt p2 should disable replication of p2-delORF2-URA3. […] Next, the same experiment was repeated in the presence of a codon-optimized TP-DNAP2 expressed in trans from a standard yeast CEN6/ARS4 nuclear plasmid (pGA55-reTP-DNAP2). […] Therefore, p2-derived plasmids can be replicated by TP-DNAP2 encoded on a standard nuclear plasmid, simplifying the characterization of p2 replication by error-prone TP-DNAP2 variants.
# [3] = system: p1-encoded leu2 (Q180*); test: qPCR measurement of p1-encoded leu2 (Q180*) copy number; details: qPCR-determined p1 copy number, OR-Y24 strains
# Experimental: A calibration curve was established to correlate p1 copy number, determined via quantitative PCR (qPCR), with fluorescence of p1-encoded mKate2 (Table 1). Five TP-DNAP1 variants representing a wide range of copy numbers were transformed into ORY24 and passaged until w.t. p1 was displaced. The five OR-Y24 strains were grown to saturation, diluted 1:10,000 to mimic p1 fluctuation tests, and grown in triplicate 100 μL cultures and duplicate 40 mL cultures. 100 μL saturated cultures were subject to fluorescence measurement of mKate2 (ex/em=561 nm/620 nm, bandwidth=15 nm) on a flow cytometer (Invitrogen Attune NxT). Whole-cell DNA extracts were prepared from 40 mL cultures and used as templates for qPCR measurement of p1-encoded leu2 (Q180*), as described previously (Ravikumar et al., 2014). p1-encoded LEU2 was PCR amplified with qPCR-Leu2F and qPCR Leu2R; and genomic LEU3 was PCR amplified with qPCR-Leu3F and qPCR-Leu3R using SyBR Green (Fisher Scientific) master mix.
# [4] = system: genomic URA3 gene; test: Fluctuation tests of the genomic URA3 gene in the presence of TP-DNAP1 variants; details: for Yeast genomic substitution mutation rate: URA3 locus, strain harbouring p1 and the TP-DNAP1 variant
# Experimental: Fluctuation tests of the genomic URA3 gene were performed to determine genomic per-base substitution rates, as previously described (Ravikumar et al., 2014). Fluctuation data were analyzed by the maximum likelihood method, as described for large-scale p1 fluctuation tests. Phenotypic mutation rates were divided by the target size for loss of function of URA3 via base pair substitution (Lang et al., 2008), to yield per-base substitution rates. 95% confidence intervals were similarly scaled by these factors. All data related to genomic URA3 fluctuation tests are fully described in Table 5.
molecule,measurement,setting,value
"WT: wild-type Kluyveromyces lactis DNA polymerase TP-DNAP2, SEQ ID NO:13 (protein, listed as Kluyveromyces lactis) MNDELAFLNSQIDDYSDDIEFLRTEVFRINRYSKSIYSLMKNSSKEAIKETIEFNKYGQEIHSKIKEKEISLIEAIKLMEKKYKYLRSLNKTKDKSKKKKIHTKDIETLKTIYKTKADFDIRNFKNAETFTYENYSLLIPSEKELIDLIPEIEEDYSYYFYVSLTITGPTIFGGVTRKVPIIDTYGDINKDFYNKIKENITKVLDRVPFYEEKESEIICKKVLITLTVNKWESIDKWYKNVKSKSKKFKDFTLFLASDTSKNCVQQCVEYLGGKWNTNYSLEKMIPQQKIVTYIPLLMDIQYVQSMEDLISDFDEPNTDCKNIARLLKWNGHMGVITKIDKDVKINRIQRKRIIDVENKEVKEVFFDIESFSDETKHQIPYLICWSYLGELYYRTGKNCIKEFVEEILSYNVDIILYAWYGSGYDYQHVLPYMKSKCIKDKYIIKNNMITYGELYYENAIIYLKDPYLFILTSLDKASKAFNVINKGEFPHSIIHSWEDLNKILPNWVKIQKRMIEYKDDNKLNIYYKNIEIFENDRNYNTILENAIEYCKVDVLAMEKVWIKFKKLLEKNLNITVSVKTFTLSQLSMKIMESKLPKYVKLYVPTLEEYSKIRNAIYGGRVISKNGIYEENIVYADVVSLYPSAMKLLKHSYGKPKLVDYIDFEKHGIYRVTLLNKHDQEPKNYLNFVPRRINRKLTWEWFKIHEGWYHTYDLIIAKSEGFDIYCHEGFEYPEKDYIFNDFIDTLYSMKETHTACSCEEQPCPIRMVAKIALNGGGYGKFVQKPIDKEIYIVKRDVVAGECDKLQENENGEICIGKRLVKRPLFYNLDSENYDKMIIEKEDEPIYSTQCGISILSASRYRLYKLCKQFENIDIIYSDTDSIFVKQKSVDWELFKSKCGSELGQLDSTIDDTKNAIISKMYIGGAKMYAFEYLNNKNKLITKLHCKGVPNYMLSLNQFKYLMESPDNTIAYKFEIIRRKLVNVITKDLIKDIKQT",specificity for p2 over p1,[1],at least 29 fold
same,mutation rate of p2-delORF1-mUL* replication,"[1]; GA-Y021, wt TP-DNAP2 encoded on p2",5.96×10^−10 s.p.b.
"S370Q: TP-DNAP2 variant (protein, listed as Kluyveromyces lactis) MNDELAFLNSQIDDYSDDIEFLRTEVFRINRYSKSIYSLMKNSSKEAIKETIEFNKYGQEIHSKIKEKEISLIEAIKLMEKKYKYLRSLNKTKDKSKKKKIHTKDIETLKTIYKTKADFDIRNFKNAETFTYENYSLLIPSEKELIDLIPEIEEDYSYYFYVSLTITGPTIFGGVTRKVPIIDTYGDINKDFYNKIKENITKVLDRVPFYEEKESEIICKKVLITLTVNKWESIDKWYKNVKSKSKKFKDFTLFLASDTSKNCVQQCVEYLGGKWNTNYSLEKMIPQQKIVTYIPLLMDIQYVQSMEDLISDFDEPNTDCKNIARLLKWNGHMGVITKIDKDVKINRIQRKRIIDVENKEVKEVFFDIEQFSDETKHQIPYLICWSYLGELYYRTGKNCIKEFVEEILSYNVDIILYAWYGSGYDYQHVLPYMKSKCIKDKYIIKNNMITYGELYYENAIIYLKDPYLFILTSLDKASKAFNVINKGEFPHSIIHSWEDLNKILPNWVKIQKRMIEYKDDNKLNIYYKNIEIFENDRNYNTILENAIEYCKVDVLAMEKVWIKFKKLLEKNLNITVSVKTFTLSQLSMKIMESKLPKYVKLYVPTLEEYSKIRNAIYGGRVISKNGIYEENIVYADVVSLYPSAMKLLKHSYGKPKLVDYIDFEKHGIYRVTLLNKHDQEPKNYLNFVPRRINRKLTWEWFKIHEGWYHTYDLIIAKSEGFDIYCHEGFEYPEKDYIFNDFIDTLYSMKETHTACSCEEQPCPIRMVAKIALNGGGYGKFVQKPIDKEIYIVKRDVVAGECDKLQENENGEICIGKRLVKRPLFYNLDSENYDKMIIEKEDEPIYSTQCGISILSASRYRLYKLCKQFENIDIIYSDTDSIFVKQKSVDWELFKSKCGSELGQLDSTIDDTKNAIISKMYIGGAKMYAFEYLNNKNKLITKLHCKGVPNYMLSLNQFKYLMESPDNTIAYKFEIIRRKLVNVITKDLIKDIKQT",fold increase of p2 mutation rate,"[1]; GA-Y021, mutual orthogonality experiment, 48 replicates",29 fold
same,Per-base substitution rate pf p2,"[1]; TP-DNAP2 variant in trans, wt TP-DNAP2 in cis, 36 replicates, (95% C.I.)",83.0 (62.8-105) ×10^−10
same,Fold increase,[1]; p2 substitution rate over no variant in trans,13.9
same,fold increase of p2 substitution mutation rate,"[1]; reconfirmation, 36 replicates",~14 fold
same,ability to complement deletion of native TP-DNAP2 and sustain p2-delORF2-URA3 replication,[2],not active enough to fully complement a deletion of the native TP-DNAP2
"TP-DNAP1-4-2: TP-DNAP1 variant (L477V, L640Y, I777K, W814N), encoded by SEQ ID NO:11 (protein, listed as Kluyveromyces lactis) MDYKDKALNDLRNVYADFDSLPLDFRQILIKDRATLLQKEDVEKKILERQEDAKKYAEYLKQSEIPERISLPNIKRHKGVSISFEETSEDMVLEPRPFIFDGLNIRCFRRETIFSLKNKILNMVKESSSFKNVSRQSVSFMYFKIFNKGKVIASTKSVNIYEDKIDERLEDLCNNFDDVLKKIIDVTYGYESLFVSETYSYVIFYAKSIYFPQPRCVNNWGNNIPNILTFDSFKLFTANKNNVSCIKQCSRFLWQKDFNTLEEMIEYKNGNICIVTPQLHINDVRDIKSFNDIRLYSESPIKTFSVIDNTITYLFYFKEHLGVIFNITKSRHDRRVTKFSPLSKFSDVKNITVCFDIESYFDPEKESNQVNIPFICCASIIYNKVIGNIVDFEGRDCVAQMIEYVVDICGELNISSVELIAHNGGGYDFHYILSSMYNPAAIKNILIRNNSFISFNFAHDGVKFSVKDSYSFLLCSVANASKAFLNEETFKKTDFPHHDLKTADDLYKVYKEWSSVNTEINHVVEKEKLLITSEHIVNFTKNDKSKTLIEWSKDYCRNDVLVLSKVWLEFKNAVEDIFNCELVDQTMTLAGLSYKLFQANMPFDVELRHPNKEDYFNMREALIGGRCISVNGIYKDVLCYDVKSLYPASMAFYDQPYGSFKRVSSRPKDELGIYYVRVTPNRNNKSNFFPIRSHNKITYNNFEESTYIAWYTNVDIDIGLSEGHNIEYIPFDSYGNIGYSWSKKGKIFEKYIKDVLYKLKIKYEKQNNKVKRNVIKKIMNSLWGKFAQKWVNFEYFIKSEDDIDFESEEAYKINDTDFMLIKKIKESTYSSKPIQNGVFTLSWARYHMKSIWDAGAKEGAECIYSDTDSIFVHKEHFKKNAKFMLNGLKVPIIGSEVGQLELECEFDKLLCAGKKQYMGFYTYFQDGKPCIKEKKRFKGIPSNYIIPELYAHLLSGADKEAKIQFLKFRREWGSVKGYIENKTVKAT",Average leu2 (Q180*) copy number per cell,"[3]; L640Y, I777K, W614N",16.9 and 15.6
same,genomic mutation rates in the presence of p1 replication,[4],remain unchanged
same,Yeast genomic substitution mutation rate,[4],1.98 × 10^−10 s.p.b.
same,change in p2 mutation rate by TP-DNAP1,[1],no statistically significant change
"w.t.: wild-type Kluyveromyces lactis DNA polymerase TP-DNAP1, SEQ ID NO:1 (protein, listed as Kluyveromyces lactis) MDYKDKALNDLRNVYADFDSLPLDFRQILIKDRATLLQKEDVEKKILERQEDAKKYAEYLKQSEIPERISLPNIKRHKGVSISFEETSEDMVLEPRPFIFDGLNIRCFRRETIFSLKNKILNMVKESSSFKNVSRQSVSFMYFKIFNKGKVIASTKSVNIYEDKIDERLEDLCNNFDDVLKKIIDVTYGYESLFVSETYSYVIFYAKSIYFPQPRCVNNWGNNIPNILTFDSFKLFTANKNNVSCIKQCSRFLWQKDFNTLEEMIEYKNGNICIVTPQLHINDVRDIKSFNDIRLYSESPIKTFSVIDNTITYLFYFKEHLGVIFNITKSRHDRRVTKFSPLSKFSDVKNITVCFDIESYFDPEKESNQVNIPFICCASIIYNKVIGNIVDFEGRDCVAQMIEYVVDICGELNISSVELIAHNGGGYDFHYILSSMYNPAAIKNILIRNNSFISFNFAHDGVKFSVKDSYSFLLCSLANASKAFLNEETFKKTDFPHHDLKTADDLYKVYKEWSSVNTEINHVVEKEKLLITSEHIVNFTKNDKSKTLIEWSKDYCRNDVLVLSKVWLEFKNAVEDIFNCELVDQTMTLAGLSYKLFQANMPFDVELRHPNKEDYFNMREALIGGRCISVNGIYKDVLCLDVKSLYPASMAFYDQPYGSFKRVSSRPKDELGIYYVRVTPNRNNKSNFFPIRSHNKITYNNFEESTYIAWYTNVDIDIGLSEGHNIEYIPFDSYGNIGYSWSKKGKIFEKYIKDVLYKLKIKYEKQNNKVKRNVIKIIMNSLWGKFAQKWVNFEYFIKSEDDIDFESEEAYKIWDTDFMLIKKIKESTYSSKPIQNGVFTLSWARYHMKSIWDAGAKEGAECIYSDTDSIFVHKEHFKKNAKFMLNGLKVPIIGSEVGQLELECEFDKLLCAGKKQYMGFYTYFQDGKPCIKEKKRFKGIPSNYIIPELYAHLLSGADKEAKIQFLKFRREWGSVKGYIENKTVKAT",Average leu2 (Q180*) copy number per cell,[3],68.9 and 88.1
same,Yeast genomic substitution mutation rate,[4],8.73 × 10^−11 s.p.b.
same,change in p2 mutation rate by TP-DNAP1,[1],no effect
